Measurements taken from patent publication JP2016028048A (dated 2016).
Residue numbers refer to the chain shown, from its start.

B1: TP-2A2 (Fab, V domains shown)
VH: QVQLVESGGGLVQPGGSLRLSCAASGFTFSNNAMNWVRQAPGKGLEWVSTISYDGSNTYYADSVKGRFTISRDNSKNTLYLQMNSLRAEDTAVYYCARQAGGWTYSYTDVWGQGTLVTVSS
VL: DIELTQPPSVSVAPGQTARISCSGDNIRTYYVHWYQQKPGQAPVVVIYGDSKRPSGIPERFSGSNSGNTATLTISGTQAEDEADYYCQSYDSEADSEVFGGGTKLTVLG
notes: Human Fab (HuCal Gold), made in E. coli TG1
B2: TP-2B9 (Fab, V domains shown)
VH: QVQLQQSGPGLVKPSQTLSLTCAISGDSVSSNSAAWGWIRQSPGRGLEWLGMIYHRSKWYNDYAVSVKSRITINPDTSKNQFSLQLNSVTPEDTAVYYCARYSSIGHMDYWGQGTLVTVSS
VL: DIQMTQSPSSLSASVGDRVTITCRASQSIRSYLAWYQQKPGKAPKLLIYKASNLQSGVPSRFSGSGSGTDFTLTISSLQPEDFAVYYCHQYSDSPVTFGQGTKVEIKR
notes: as for B1
B3: TP-2C1 (Fab, V domains shown)
VH: QVQLVESGGGLVQPGGSLRLSCAASGFTFSPYVMSWVRQAPGKGLEWVSSISSSSSNTYYADSVKGRFTISRDNSKNTLYLQMNSLRAEDTAVYYCARGDSYMYDVWGQGTLVTVSS
VL: DIELTQPPSVSVAPGQTARISCSGDSIGSYYAHWYQQKPGQAPVLVIYYDSKRPSGIPERFSGSNSGNTATLTISGTQAEDEADYYCQAYTGQSISRVFGGGTKLTVLG
notes: as for B1
B4: TP-2D7 (Fab, V domains shown)
VH: QVQLQQSGPGLVKPSQTLSLTCAISGDSVSSNSAAWGWIRQSPGRGLEWLGLIYYRSKWYNDYAVSVKSRITINPDTSKNQFSLQLNSVTPEDTAVYYCARFGDTNRNGTDVWGQGTLVTVSS
VL: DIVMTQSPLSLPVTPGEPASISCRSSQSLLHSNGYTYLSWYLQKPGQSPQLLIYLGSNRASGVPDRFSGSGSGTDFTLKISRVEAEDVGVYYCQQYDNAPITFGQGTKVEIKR
notes: as for B1
B5: TP-2E3 (Fab, V domains shown)
VH: B2 VH with H55Y, Y102V, S103N, S104Q, I105Y, G106T, H107S, M108S
VL: DIALTQPASVSGSPGQSITISCTGTSSDIGGYNYVSWYQQHPGKAPKLMIYGVNYRPSGVSNRFSGSKSGNTASLTISGLQAEDEADYYCSSADKFTMSIVFGGGTKLTVLG
notes: as for B1
B6: TP-2E5 (Fab, V domains shown)
VH: QVQLQQSGPGLVKPSQTLSLTCAISGDSVSSNSAAWSWIRQSPGRGLEWLGMIFYRSKWNNDYAVSVKSRITINPDTSKNQFSLQLNSVTPEDTAVYYCARVNANGYYAYVDLWGQGTLVTVSS
VL: DIQMTQSPSSLSASVGDRVTITCRASQPIYNSLSWYQQKPGKAPKLLIYGVSNLQSGVPSRFSGSGSGTDFTLTISSLQPEDFAVYYCLQVDNLPITFGQGTKVEIKR
notes: as for B1
B7: TP-2F9 (Fab, V domains shown)
VH: QVQLVESGGGLVQPGGSLRLSCAASGFTFYKYAMHWVRQAPGKGLEWVSGIQYDGSYTYYADSVKGRFTISRDNSKNTLYLQMNSLRAEDTAVYYCARYYCKCVDLWGQGTLVTVSS
VL: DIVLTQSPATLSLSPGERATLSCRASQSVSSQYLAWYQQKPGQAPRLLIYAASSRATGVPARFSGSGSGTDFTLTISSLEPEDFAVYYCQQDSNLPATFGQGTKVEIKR
notes: as for B1
B8: TP-2G2 (Fab, V domains shown)
VH: QVQLVESGGGLVQPGGSLRLSCAASGFTFSSYAMNWVRQAPGKGLEWVSAILSDGSSTSYADSVKGRFTISRDNSKNTLYLQMNSLRAEDTAVYYCARYPDWGWYTDVWGQGTLVTVSS
VL: DIELTQPPSVSVAPGQTARISCSGDNIRKFYVHWYQQKPGQAPVLVIYGTNKRPSGIPERFSGSNSGNTATLTISGTQAEDEADYYCQSYDSKFNTVFGGGTKLTVLG
notes: as for B1
B9: TP-2G4 (Fab, V domains shown)
VH: QVQLVESGGGLVQPGGSLRLSCAASGFTFSSYAMTWVRQAPGKGLEWVSNISYSGSNTYYADSVKGRFTISRDNSKNTLYLQMNSLRAEDTAVYYCARVGYYYGFDYWGQGTLVTVSS
VL: DIELTQPPSVSVAPGQTARISCSGDALRKHYVYWYQQKPGQAPVLVIYGDNNRPSGIPERFSGSNSGNTATLTISGTQAEDEADYYCQSYDKPYPILVFGGGTKLTVLG
notes: as for B1
B10: TP-2G5 (Fab, V domains shown)
VH: B2 VH with G37S, M52F, H55Y, Y102H, S103N, S104P, I105D, G106L, H107G, M108F
VL: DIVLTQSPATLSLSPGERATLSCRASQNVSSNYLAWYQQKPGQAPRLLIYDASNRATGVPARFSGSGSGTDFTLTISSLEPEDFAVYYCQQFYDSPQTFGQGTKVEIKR
notes: as for B1
B11: TP-2A5.1 (Fab, V domains shown)
VH: QVQLVESGGGLVQPGGSLRLSCAASGFTFSSYGSWVRQAPGKGLEWVSVISGSGSSTYYADSVKGRFTISRDNSKNTLYLQMNSLRAEDTAVYYCARVNISTHFDVWGQGTLVTVSS
VL: DIELTQPPSVSVAPGQTARISCSGDNIPEKYVHWYQQKPGQAPVLVIHGDNNRPSGIPERFSGSNSGNTATLTISGTQAEDEADYYCQSFDAGSYFVFGGGTKLTVLG
notes: as for B1
B12: TP-2G7 (Fab, V domains shown)
VH: QVQLVESGGGLVQPGGSLRLSCAASGFTFNSYAMSWVRQAPGKGLEWVSNISSNSSNTYYADSVKGRFTISRDNSKNTLYLQMNSLRAEDTAVYYCARKGGGEHGFFPSDIWGQGTLVTVSS
VL: B1 VL with I27L, R28G, V45L, S51N, K52N, S89T, E93N, A94N, D95E, E97I
notes: as for B1
B13: TP-2G9 (Fab, V domains shown)
VH: QVQLVESGGGLVQPGGSLRLSCAASGFTFNSYAMTWVRQAPGKGLEWVSAIKSDGSNTYYADSVKGRFTISRDNSKNTLYLQMNSLRAEDTAVYYCARNDSGWFDVWGQGTLVTVSS
VL: DIALTQPASVSGSPGQSITISCTGTSSDLGGFNTVSWYQQHPGKAPKLMIYSVSSRPSGVSNRFSGSKSGNTASLTISGLQAEDEADYYCQSYDLNNLVFGGGTKLTVLG
notes: as for B1
B14: TP-2H10 (Fab, V domains shown)
VH: B2 VH with S33G, M52F, H55R, D62S, Y102Q, S103D, S104G, I105M, H107G, Y110S
VL: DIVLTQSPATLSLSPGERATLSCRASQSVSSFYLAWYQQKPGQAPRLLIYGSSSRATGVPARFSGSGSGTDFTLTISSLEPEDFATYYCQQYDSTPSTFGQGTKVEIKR
notes: as for B1
B15: TP-3A2 (Fab, V domains shown)
VH: QVQLVESGGGLVQPGGSLRLSCAASGFTFSNYYLSWVRQAPGKGLEWVSGISYNGSSTNYADSVKGRFTISRDNSKNTLYLQMNSLRAEDTAVYYCARMWRYSLGADSWGQGTLVTVSS
VL: DIELTQPPSVSVAPGQTARISCSGDNIGSRYAYWYQQKPGQAPVVVIYDDSDRPSGIPERFSGSNSGNTATLTISGTQAEDEADYYCAAYTFYARTVFGGGTKLTVLG
notes: as for B1
B16: TP-3A3 (Fab, V domains shown)
VH: QVQLVESGGGLVQPGGSLRLSCAASGFTFNNNAISWVRQAPGKGLEWVSAINSSSSSTSYADSVKGRFTISRDNSKNTLYLQMNSLRAEDTAVYYCARGHHRGHSWASFIDYWGQGTLVTVSS
VL: DIELTQPPSVSVAPGQTARISCSGDNIGSKYVHWYQQKPGQAPVVVIYEDSDRPSGIPERFSGSNSGNTATLTISGTQAEDEADYYCQSWDKSEGYVFGGGTKLTVLG
notes: as for B1
B17: TP-3A4 (Fab, V domains shown)
VH: QVQLVESGGGLVQPGGSLRLSCAASGFTFSSYWMHWVRQAPGKGLEWVSSISYDSSNTYYADSVKGRFTISRDNSKNTLYLQMNSLRAEDTAVYYCARYGGMDYWGQGTLVTVSS
VL: DIELTQPPSVSVAPGQTARISCSGDNLRDKYASWYQQKPGQAPVLVIYSKSERPSGIPERFSGSNSGNTATLTISGTQAEDEADYYCSSYTLNPNLNYVFGGGTKLTVLG
notes: as for B1
B18: TP-3B3 (Fab, V domains shown)
VH: B9 VH with A33G, T35H, S54M, Y59N, V99G, G100L, Y101F, Y102P, Y103G, G104Y
VL: DIELTQPASVSVAPGQTARISCSGDNLRSKYAHWYQQKPGQAPVLVIYGDNNRPSGIPERFSGSNSGNTATLTISGTQAEDEADYYCSAYAMGSSPVFGGGTKLTVLG
notes: as for B1
B19: TP-3C1 (Fab, V domains shown)
VH: QVQLVESGGGLVQPGGSLRLSCAASGFTFSSYSMHWVRQAPGKGLEWVSGISYSSSFTYYADSVKGRFTISRDNSKNTLYLQMNSLRAEDTAVYYCARALGGGVDYWGQGTLVTVSS
VL: B13 VL
notes: Human Fab (HuCal Gold), made in E. coli TG1; VL is the same entry as TP-2G9, VH the same entry as TP-3F2 (so in the source)
B20: TP-2A6 (Fab, V domains shown)
VH: QVQLVESGGGLVQPGGSLRLSCAASGFTFSRYAMSWVRQAPGKGLEWVSSIISSSSETYYADSVKGRFTISRDNSKNTLYLQMNSLRAEDTAVYYCARLMGYGHYYPFDYWGQGTLVTVSS
VL: DIELTQPPSVSVAPGQTARISCSGDKIGSKYVYWYQQKPGQAPVLVIYDSNRPSGIPERFSGSNSGNTATLTISGTQAEDEADYYCASYDSIYSYWVFGGGTKLTVLG
notes: as for B1
B21: TP-3C2 (Fab, V domains shown)
VH: QVQLQQSGPGLVKPSQTLSLTCAISGDSVSSSSAAWSWIRQSPGRGLEWLGMIYYRSKWYNHYAVSVKSRITINPDTSKNQFSLQLNSVTPEDTAVYYCARGGSGVMDVWGQGTLVTVSS
VL: B2 VL with R30T, S31N, A34N, K50D, A51V, H89Q, D93G, S94Y, V96L
notes: as for B1
B22: TP-3C3 (Fab, V domains shown)
VH: B4 VH with L52V, F102A, G103R, D104A, T105K, N106K, R107S, N108G, T110F, V112Y
VL: DIQMTQSPSSLSASVGDRVTITCRASQSINPYLNWYQQKPGKAPKLLIYAASNLQSGVPSRFSGSGSGTDFTLTISSLQPEDFAVYYCQQLDNRSITFGQGTKVEIKR
notes: as for B1

Target: T1, ヒト組織因子経路インヒビター (human TFPI) (human, UniProt P10646 29-304, limits assumed)
T1 construct: Coated on Maxisorp plates (ELISA) or amine-coupled to a CM5 chip (Biacore); also called ヒトTFPI; hTFPI
T1 sequence (looked up): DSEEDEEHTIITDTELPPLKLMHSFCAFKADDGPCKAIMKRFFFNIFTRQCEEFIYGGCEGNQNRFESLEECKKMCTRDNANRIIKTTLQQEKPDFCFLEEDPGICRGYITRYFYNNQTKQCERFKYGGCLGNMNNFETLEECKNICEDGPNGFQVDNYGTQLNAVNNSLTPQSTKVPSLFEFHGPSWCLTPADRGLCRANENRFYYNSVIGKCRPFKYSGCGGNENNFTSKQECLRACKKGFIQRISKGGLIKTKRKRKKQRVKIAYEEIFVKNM
Assay: ELISA, Fab in bacterial lysate on human TFPI-coated plate

| Binder | binding result |
| --- | --- |
| B1 | binds |
| B2 | binds |
| B3 | binds |
| B4 | binds |
| B5 | binds |
| B6 | binds |
| B7 | binds |
| B8 | binds |
| B9 | binds |
| B10 | binds |
| B11 | binds |
| B12 | binds |
| B13 | binds |
| B14 | binds |
| B15 | binds |
| B16 | binds |
| B17 | binds |
| B18 | binds |
| B19 | binds |
| B20 | binds |
| B21 | binds |
| B22 | binds |
